T1: His-tagged recombinant Human TIGIT (human, UniProt Q495A1 22-141)
T1 construct: also called VSIG9; VSTM3; not shown: His tag
T1 sequence (looked up): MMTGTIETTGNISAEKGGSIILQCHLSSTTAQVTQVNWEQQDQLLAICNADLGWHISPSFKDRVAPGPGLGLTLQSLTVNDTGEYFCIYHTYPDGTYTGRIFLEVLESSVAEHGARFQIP

B1: Ab38 (Fab, V domains shown)
VH: EVQLLESGGGLVQPGGSLRLSCAASGFTFSSYTMSWVRQAPGKGLEWVAGIWSDSGNKGYADSVKGRFTISRDNSKNTLYLQMNSLRAEDTAVYYCARVPYSVWIDYWGQGTLVTVSS
VL: not shown
notes: ARV set
B2: Ab40 (Fab, V domains shown)
VH: EVQLLESGGGLVQPGGSLRLSCAASGFTFSSYGMNWVRQAPGKGLEWVAGIKYSSGNKYYADSVKGRFTISRDNSKNTLYLQMNSLRAEDTAVYYCARGPYDVWMDYWGQGTLVTVSS
VL: not shown
notes: ARG set; also called clone Ab40
B3: Ab53 (Fab, V domains shown)
VH: EVQLLESGGGLVQPGGSLRLSCAASGFTFSSYSMHWVRQAPGKGLEWVASIKSSSSNKYYADSVKGRFTISRDNSKNTLYLQMNSLRAEDTAVYYCARGPYDVWLDYWGQGTLVTVSS
VL: not shown
notes: ARG set; also called clone Ab53
B4: Ab60 (Fab, V domains shown)
VH: EVQLLESGGGLVQPGGSLRLSCAASGFTFSSYSMHWVRQAPGKGLEWVSSISSSAGYTSYADSVKGRFTISRDNSKNTLYLQMNSLRAEDTAVYYCARVPYDVWLDYWGQGTLVTVSS
VL: not shown
notes: ARV set
B5: Ab68 (Fab, V domains shown)
VH: EVQLLESGGGLVQPGGSLRLSCAASGFTFSSYSMHWVRQAPGKGLEWVAAIKGNTGSTYYADSVKGRFTISRDNSKNTLYLQMNSLRAEDTAVYYCARVPYGVWMDYWGQGTLVTVSS
VL: not shown
notes: ARV set
B6: Ab97 (Fab, V domains shown)
VH: EVQLLESGGGLVQPGGSLRLSCAASGFTFSSYSMHWVRQAPGKGLEWVAAISSNTGSIGYADSVKGRFTISRDNSKNTLYLQMNSLRAEDTAVYYCARVPYDVWIDYWGQGTLVTVSS
VL: not shown
notes: ARV set
B7: Ab193 (Fab, V domains shown)
VH: EVQLLESGGGLVQPGGSLRLSCAASGFTFSSYAMSWVRQAPGKGLEWVSAIKSDTSTIYYADSVKGRFTISRDNSKNTLYLQMNSLRAEDTAVYYCAREPYSTWLDYWGQGTLVTVSS
VL: not shown
notes: ARE set
B8: Ab78 (Fab, V domains shown)
VH: EVQLLESGGGLVQPGGSLRLSCAASGFTFSSYSMHWVRQAPGKGLEWVASISGSTSSSSYADSVKGRFTISRDNSKNTLYLQMNSLRAEDTAVYYCARVPYDVWMDYWGQGTLVTVSS
VL: not shown
notes: ARV set
B9: Ab93 (Fab, V domains shown)
VH: EVQLLESGGGLVQPGGSLRLSCAASGFTFSSYAMSWVRQAPGKGLEWVASISSSTGTISYADSVKGRFTISRDNSKNTLYLQMNSLRAEDTAVYYCARVPYSVWMDYWGQGTLVTVSS
VL: not shown
notes: ARV set
B10: Ab152 (Fab, V domains shown)
VH: EVQLLESGGGLVQPGGSLRLSCAASGFTFSSYSMHWVRQAPGKGLEWVTSISSNAGYISYADSVKGRFTISRDNSKNTLYLQMNSLRAEDTAVYYCARVPYDVWMDYWGQGTLVTVSS
VL: not shown
notes: ARV set
B11: Ab170 (Fab, V domains shown)
VH: EVQLLESGGGLVQPGGSLRLSCAASGFTFNSYAMHWVRQAPGKGLEWVAYISGNAGSIYYADSVKGRFTISRDNSKNTLYLQMNSLRAEDTAVYYCARVPYSVWLDYWGQGTLVTVSS
VL: not shown
notes: ARV set
B12: Ab187 (Fab, V domains shown)
VH: EVQLLESGGGLVQPGGSLRLSCAASGFTFSSYSMSWVRQAPGKGLEWVASIKSDASTTGYADSVKGRFTISRDNSKNTLYLQMNSLRAEDTAVYYCAREPYSVWLDYWGQGTLVTVSS
VL: not shown
notes: ARE set
B13: Ab2 (Fab, V domains shown)
VH: EVQLLESGGGLVQPGGSLRLSCAASGFTFSSYGMNWVRQAPGKGLEWVAGINYSSGNKYYADSVKGRFTISRDNSKNTLYLQMNSLRAEDTAVYYCARGPYASTWLDYWGQGTLVTVSS
VL: not shown
notes: ARG set

Biological target: T1, His-tagged recombinant Human TIGIT
Assay: ELISA, coated His-tagged human TIGIT
Procedure: Binding affinities for antigen binding to anti-TIGIT monoclonal antibodies were determined by ELISA. […] Antibodies to be tested were diluted to 1 μM in PBS buffer containing 1% BSA and diluted 3-fold in a 10-point curve. […] Detection of the secondary antibody was determined using streptavidin-HRP and TMB reagent. All assays were performed at room temperature. Curve-fitting software was used to determine the EC₅₀ for each antibody.

Point of comparison: B2, EC50 0.3 nM. Against it:
- B1 — 150-fold higher, 45.5 nM
- B3 — 14-fold higher, 4.3 nM
- B4 — 270-fold higher, 79.8 nM
- B5 — 2100-fold higher, 639 nM
- B6 — 960-fold higher, 289 nM
- B7 — 15-fold higher, 4.6 nM
- B8 — 400-fold higher, 119 nM
- B9 — 410-fold higher, 122 nM
- B10 — 90-fold higher, 27.1 nM
- B11 — 460-fold higher, 138 nM
- B12 — 21-fold higher, 6.2 nM
- B13 — 52-fold higher, 15.7 nM
